Experimental findings from the Human Domainome abundance scans (Beltran et al. 2025) are described below.

± gives the uncertainty stated by the source.

The chains are these.
B1: Neutrophil cytosol factor 2, residues 456 to 514; numbered along this chain, P19878 (parent)
chain: LKKGSQVEALFSYEATQPEDLEFQEGDIILVLSKVNEEWLEGECKGKVGIFPKVFVEDC

This data set covers variants of B1. As to the kind of experiment: abundance fitness (aPCA) (normalised: wild type 0, dead -1); higher = more abundant; growth selection in yeast, the domain comes from the species named. The settings on record: Homo sapiens.
Regarding E41R, the abundance fitness amounted to 0.131 ± 0.083.

As to E41Q, the abundance fitness stood at 0.238 ± 0.3. With E41N the figure was -0.635 ± 0.14; with E41M, 0.275 ± 0.13; with K47F, -0.241 ± 0.1. On to K47N, for which the abundance fitness is -0.271 ± 0.1. Take K47E: the abundance fitness is -0.822 ± 0.42.

Turning to K47T, the abundance fitness is -0.284 ± 0.13.

For the variant K47M, the abundance fitness is -0.924 ± 0.32. With Q24L the figure was -0.535 ± 0.17; with Q24A, -0.186 ± 0.13; with Q24R, -0.234 ± 0.1.

Regarding Q24S, the abundance fitness turned out to be 0.286 ± 0.072. The value for Q24K was 0.047 ± 0.22; that for L32R was 0.564 ± 0.079; that for L32S was -0.069 ± 0.079. The value for L32C was -0.428 ± 0.13. On to W39E, for which the abundance fitness was -0.269 ± 0.26.

As to W39M, the abundance fitness came to 0.036 ± 0.26.

With W39N, the abundance fitness is -0.196 ± 0.11.

In the case of F11M, the abundance fitness is -0.084 ± 0.24. With F11N the figure was 0.029 ± 0.28; with K3R, -0.397 ± 0.22; with K3I, 0.207 ± 0.19. The value for K3W was -0.781 ± 0.47; that for V54T was 0.18 ± 0.12. With V54I the figure was -0.079 ± 0.13; with V54F, -0.203 ± 0.13; with V54L, -0.434 ± 0.13. With V54C, the abundance fitness was 0.378 ± 0.078.

C59D: the abundance fitness is -0.555 ± 0.23. With C59P the figure was 0.078 ± 0.14. With L30I the figure was 0.032 ± 0.1.

For the variant L30F, the abundance fitness was -0.147 ± 0.1. With L30H the figure was 0.448 ± 0.12; with L30R, 0.552 ± 0.07; with L30S, 0.469 ± 0.068.

In the case of L30A, the abundance fitness was -0.284 ± 0.13. Consider E37M, for which the abundance fitness was -0.506 ± 0.22. The value for E37C was -0.109 ± 0.15; that for F55Y was 0.152 ± 0.11.

As for F55M, the abundance fitness was determined as 0.111 ± 0.23.

As for F55E, the abundance fitness was -0.821 ± 0.39.

As for E22D, the abundance fitness was -0.602 ± 0.16. With E22W the figure was -0.787 ± 0.25; with E22C, -0.627 ± 0.14. With K45E the figure was -0.905 ± 0.49. With K45G the figure was -0.61 ± 0.16. As to K45V, the abundance fitness is -0.734 ± 0.17. With V7T the figure was 0.249 ± 0.18; with V7I, -0.805 ± 0.4; with V7G, -0.67 ± 0.27. Take S33R: the abundance fitness came out at 0.59 ± 0.077. With E43S the figure was 0.025 ± 0.076; with E43R, -0.521 ± 0.15; with F51V, -0.342 ± 0.11. As to F51P, the abundance fitness was -0.924 ± 0.47. The value for F51G was -0.425 ± 0.097; that for F51A was -0.63 ± 0.15; that for K53N was -0.378 ± 0.15. The value for K53P was -0.716 ± 0.29; that for K53S was -0.39 ± 0.12; that for K53D was -0.61 ± 0.18. Take K53F: the abundance fitness was -0.857 ± 0.25. With K53R the figure was 0.195 ± 0.1; with G46P, -0.747 ± 0.47; with G46W, -0.346 ± 0.21.

In the case of G46C, the abundance fitness was -0.479 ± 0.2.

With G46N, the abundance fitness is 0.219 ± 0.11. The value for G46E was -0.189 ± 0.28; that for I50G was -0.347 ± 0.12; that for I50Y was -0.208 ± 0.14. The value for I50A was -0.213 ± 0.17; that for T16V was -0.36 ± 0.098; that for T16H was -0.617 ± 0.18. With T16I the figure was -0.926 ± 0.23; with P18K, -0.558 ± 0.38. For the variant P18T, the abundance fitness is -0.599 ± 0.19. Take P18V: the abundance fitness is -0.648 ± 0.17. With P18C the figure was -0.691 ± 0.14; with P18I, -0.651 ± 0.22. D20L: the abundance fitness is -0.071 ± 0.12. The value for D20H was 0.904 ± 0.074; that for D20E was 0.757 ± 0.14; that for D20N was -0.703 ± 0.16.

On to D20S, for which the abundance fitness was -0.528 ± 0.11. The value for D27W was -0.674 ± 0.26; that for D27I was -0.179 ± 0.1.

Take D27F: the abundance fitness was -0.493 ± 0.14. In the case of G42C, the abundance fitness was -0.782 ± 0.15.

For the variant G42K, the abundance fitness is -0.768 ± 0.35. The value for G42L was -0.569 ± 0.14; that for C44K was -0.574 ± 0.4; that for C44A was -0.241 ± 0.13. As for C44T, the abundance fitness was -0.467 ± 0.17. The value for P52K was -0.559 ± 0.33. With P52I the figure was -0.766 ± 0.18. With P52D the figure was -0.479 ± 0.21.

Consider P52T, for which the abundance fitness was -0.341 ± 0.14. With P52Y the figure was -0.738 ± 0.21; with P52E, -0.642 ± 0.37; with P52G, -0.215 ± 0.11. Take V31W: the abundance fitness is -0.6 ± 0.45.

With V31I, the abundance fitness came out at 0.342 ± 0.077. For the variant V31N, the abundance fitness was -0.092 ± 0.092. With E57V the figure was -0.198 ± 0.12; with E57P, -0.28 ± 0.21. The value for E57N was -0.194 ± 0.13; that for E57C was -0.15 ± 0.18. The value for E57W was -0.033 ± 0.28; that for E14S was -0.123 ± 0.083; that for E14P was 0.023 ± 0.19.

E14M: the abundance fitness was -0.483 ± 0.33. For E14T, the abundance fitness was determined as 0.319 ± 0.093. As to E14K, the abundance fitness was 0.217 ± 0.18. Turning to K2T, the abundance fitness worked out at 0.427 ± 0.26. K2V: the abundance fitness was -0.337 ± 0.45.

Turning to K2S, the abundance fitness is -0.347 ± 0.22. The value for G49Y was -0.503 ± 0.12.

As to G49F, the abundance fitness is -0.469 ± 0.11.

As to D58P, the abundance fitness was 0.214 ± 0.17. The value for D58I was -0.268 ± 0.17. The value for D58V was -0.138 ± 0.16; that for E19D was -0.501 ± 0.2.

As to S12M, the abundance fitness is -0.382 ± 0.22. S12Y: the abundance fitness was -0.841 ± 0.16. Consider S12R, for which the abundance fitness was -0.315 ± 0.15. The value for S12W was -0.557 ± 0.28; that for S12V was -0.816 ± 0.21. For L40C, the abundance fitness is -0.614 ± 0.17. For L40N, the abundance fitness was -0.945 ± 0.21. Turning to L40H, the abundance fitness was -0.764 ± 0.25. Take L40E: the abundance fitness is -0.742 ± 0.47.

On to L21R, for which the abundance fitness is -0.67 ± 0.15. As to L21T, the abundance fitness was -0.392 ± 0.15. With L21N the figure was -0.538 ± 0.17; with S5T, -0.037 ± 0.23. With S5M the figure was 0.216 ± 0.18. Turning to S5Q, the abundance fitness was -0.365 ± 0.27. With V48D the figure was -0.443 ± 0.17. With V48Y the figure was -0.17 ± 0.13; with N36F, -0.446 ± 0.11; with N36A, -0.063 ± 0.14. With N36T the figure was -0.867 ± 0.22. For the variant N36G, the abundance fitness is -0.103 ± 0.094. Take N36M: the abundance fitness was -0.43 ± 0.28. Regarding I29H, the abundance fitness was -0.595 ± 0.17. With G26M the figure was -0.103 ± 0.25.

As to G26N, the abundance fitness was -0.517 ± 0.23.

As to G26T, the abundance fitness was -0.881 ± 0.24. For G26W, the abundance fitness is -0.809 ± 0.29.

Turning to G26S, the abundance fitness was -0.457 ± 0.098. Consider Y13G, for which the abundance fitness is -0.165 ± 0.11.

On to Y13K, for which the abundance fitness was -0.307 ± 0.17.

Regarding Y13L, the abundance fitness is -0.573 ± 0.11. The value for G4K was -0.193 ± 0.45. With G4A the figure was -0.695 ± 0.29; with G4C, -0.371 ± 0.23; with G4I, 0.575 ± 0.31.

For the variant Q17S, the abundance fitness was found to be 0.615 ± 0.07.

For Q17E, the abundance fitness was -0.504 ± 0.3. With Q17W the figure was -0.753 ± 0.25.

On to Q17P, for which the abundance fitness was -1.03 ± 0.34. With E8P the figure was -0.363 ± 0.24; with E8M, 0.684 ± 0.12.

For the variant E8A, the abundance fitness worked out at 0.164 ± 0.23. On to I28R, for which the abundance fitness turned out to be 0.338 ± 0.075.
